Test results published in the supplement of paper PMC11246515.
± gives the standard deviation of the averaged measurements.

Experiment: total protein half-life in vivo (active degradation + dilution); higher = more stable protein
[1] = E. coli NCM3722 delta-clpP delta-lon delta-hslV, growth: N-lim chemostat, doubling time 6 h
[2] = E. coli NCM3722 delta-clpP, growth: N-lim chemostat, doubling time 6 h
[3] = E. coli NCM3722 delta-smpB, growth: N-lim chemostat, doubling time 6 h
[4] = E. coli NCM3722 delta-hslV, growth: N-lim chemostat, doubling time 6 h
[5] = E. coli NCM3722 delta-lon, growth: N-lim chemostat, doubling time 6 h
[6] = wild type E. coli NCM3722, growth: C-lim chemostat, doubling time 3 h
[7] = wild type E. coli NCM3722, growth: C-lim chemostat, doubling time 6 h
[8] = wild type E. coli NCM3722, growth: C-lim chemostat, doubling time 12 h
[9] = wild type E. coli NCM3722, growth: N-lim chemostat, doubling time 6 h
[10] = wild type E. coli NCM3722, growth: N-lim chemostat, doubling time 12 h
[11] = wild type E. coli NCM3722, growth: P-lim chemostat, doubling time 6 h
[12] = wild type E. coli NCM3722, growth: P-lim chemostat, doubling time 12 h

| Sequence | total protein half-life in vivo [1] | total protein half-life in vivo [2] | total protein half-life in vivo [3] | total protein half-life in vivo [4] | total protein half-life in vivo [5] | total protein half-life in vivo [6] | total protein half-life in vivo [7] | total protein half-life in vivo [8] | total protein half-life in vivo [9] | total protein half-life in vivo [10] | total protein half-life in vivo [11] | total protein half-life in vivo [12] |
| --- | --- | --- | --- | --- | --- | --- | --- | --- | --- | --- | --- | --- |
| MKPQVYHVDAFTSQPFRGNSAGVVFPADNLSEAQMQLIARELGHSETAFLLHSDDSDVRIRYFTPTVEVPICGHATVAAHYVRAKVLGLGNCTIWQTSLAGKHRVTIEKHNDDYRISLEQGTPGFEPPLEGETRAAIINALHLTEDDILPGLPIQVATTGHSKVMIPLKPEVDIDALSPDLNALTAISKKIGCNGFFPFQIRPGKNETDGRMFSPAIGIVEDPVTGNANGPMGAWLVHHNVLPHDGNVLRVKGHQGRALGRDGMIEVTVTIRDNQPEKVTISGTAVILFHAEWAIEL | > 8 h | 4.73 h | 6.56 h |  |  |  |  |  |  |  |  |  |
| MKPTSVIIMDTHPIIRMSIEVLLQKNSELQIVLKTDDYRITIDYLRTRPVDLIIMDIDLPGTDGFTFLKRIKQIQSTVKVLFLSSKSECFYAGRAIQAGANGFVSKCNDQNDIFHAVQMILSGYTFFPSETLNYIKSNKCSTNSSTVTVLSNREVTILRYLVSGLSNKEIADKLLLSNKTVSAHKSNIYGKLGLHSIVELIDYAKLYELI [P0AEL8] | 5.67 ± 0.072 h |  |  |  |  |  |  |  |  |  |  |  |
| MKPYQRQFIEFALSKQVLKFGEFTLKSGRKSPYFFNAGLFNTGRDLALLGRFYAEALVDSGIEFDLLFGPAYKGIPIATTTAVALAEHHDLDLPYCFNRKEAKDHGEGGNLVGSALQGRVMLVDDVITAGTAIRESMEIIQANGATLAGVLISLDRQERGRGEISAIQEVERDYNCKVISIITLKDLIAYLEEKPEMAEHLAAVKAYREEFGV [P0A7E3] | 4.07 ± 0.75 h | 3.84 ± 0.28 h | 3.83 ± 0.08 h | 3.61 h | 4.35 ± 0.61 h | 2.87 ± 0.3 h | 5.31 ± 0.18 h | 9.3 ± 3.5 h | 3.93 ± 0.33 h | 6.396 ± 0.051 h | 5.62 ± 0.25 h | 10.7 ± 0.39 h |
| MKQALRVAFGFLILWASVLHAEVRIVIDSGVDSGRPIGVVPFQWAGPGAAPEDIGGIVAADLRNSGKFNPLDRARLPQQPGSAQEVQPAAWSALGIDAVVVGQVTPNPDGSYNVAYQLVDTGGAPGTVLAQNSYKVNKQWLRYAGHTASDEVFEKLTGIKGAFRTRIAYVVQTNGGQFPYELRVSDYDGYNQFVVHRSPQPLMSPAWSPDGSKLAYVTFESGRSALVIQTLANGAVRQVASFPRHNGAPAFSPDGSKLAFALSKTGSLNLYVMDLASGQIRQVTDGRSNNTEPTWFPDSQNLAFTSDQAGRPQVYKVNINGGAPQRITWEGSQNQDADVSSDGKFMVMVSSNGGQQHIAKQDLATGGVQVLSSTFLDETPSLAPNGTMVIYSSSQGMGSVLNLVSTDGRFKARLPATDGQVKFPAWSPYL [P0A855] | 5.6 ± 0.21 h | 6.39 ± 0.61 h | 6.07 ± 0.73 h |  | 6.28 ± 0.33 h | 3.14 ± 0.04 h | 6.59 ± 0.57 h | 11.3 ± 0.41 h | 6.31 ± 0.17 h | 13.8 ± 1.4 h | 5.89 ± 0.3 h | 13.05 ± 0.13 h |
| MKQKVVSIGDINVANDLPFVLFGGMNVLESRDLAMRICEHYVTVTQKLGIPYVFKASFDKANRSSIHSYRGPGLEEGMKIFQELKQTFGVKIITDVHEPSQAQPVADVVDVIQLPAFLARQTDLVEAMAKTGAVINVKKPQFVSPGQMGNIVDKFKEGGNEKVILCDRGANFGYDNLVVDMLGFSIMKKVSGNSPVIFDVTHALQCRDPFGAASGGRRAQVAELARAGMAVGLAGLFIEAHPDPEHAKCDGPSALPLAKLEPFLKQMKAIDDLVKGFEELDTSK [P0A715] | 6.1 ± 0.77 h | 5.88 ± 1.5 h | 4.85 ± 0.15 h | 5.22 ± 0.14 h | 6.19 ± 0.93 h | 3.15 ± 0.56 h | 6.05 ± 0.51 h | 10.3 ± 1.2 h | 5.01 ± 0.13 h | 9.03 ± 0.37 h | 5.58 ± 0.48 h | 12.9 ± 1.5 h |
| MKQLTILGSTGSIGCSTLDVVRHNPEHFRVVALVAGKNVTRMVEQCLEFSPRYAVMDDEASAKLLKTMLQQQGSRTEVLSGQQAACDMAALEDVDQVMAAIVGAAGLLPTLAAIRAGKTILLANKESLVTCGRLFMDAVKQSKAQLLPVDSEHNAIFQSLPQPIQHNLGYADLEQNGVVSILLTGSGGPFRETPLRDLATMTPDQACRHPNWSMGRKISVDSATMMNKGLEYIEARWLFNASASQMEVLIHPQSVIHSMVRYQDGSVLAQLGEPDMRTPIAHTMAWPNRVNSGVKPLDFCKLSALTFAAPDYDRYPCLKLAMEAFEQGQAATTALNAANEITVAAFLAQQIRFTDIAALNLSVLEKMDMREPQCVDDVLSVDANAREVARKEVMRLAS | 4.22 ± 0.36 h | 3.69 ± 0.044 h | 3.84 ± 0.34 h | 4.05 ± 0.23 h | 3.93 ± 0.36 h | 2.81 ± 0.21 h | 5.32 ± 0.24 h | 9.19 ± 0.66 h | 3.64 ± 0.13 h | 5.81 ± 0.34 h | 5.88 ± 0.068 h | 9.74 ± 0.61 h |
| MKQVCVLGNGQLGRMLRQAGEPLGIAVWPVGLDAEPAAVPFQQSVITAEIERWPETALTRELARHPAFVNRDVFPIIADRLTQKQLFDKLHLPTAPWQLLAERSEWPAVFDRLGELAIVKRRTGGYDGRGQWRLRANETEQLPAECYGECIVEQGINFSGEVSLVGARGFDGSTVFYPLTHNLHQDGILRTSVAFPQANAQQQAQAEEMLSAIMQELGYVGVMAMECFVTPQGLLINELAPRVHNSGHWTQNGASISQFELHLRAITDLPLPQPVVNNPSVMINLIGSDVNYDWLKLPLVHLHWYDKEVRPGRKVGHLNLTDSDTSRLTATLEALIPLLPPEYASGVIWAQSKFG | 5.64 ± 0.49 h | 4.96 ± 1.2 h | 4.51 ± 0.38 h | 3.96 ± 0.012 h |  | 3.19 ± 0.41 h | 6.83 ± 1.3 h | 9.39 ± 0.78 h | 4.393 ± 0.015 h | 8.59 ± 3.2 h | 6.17 ± 0.59 h | 12.1 ± 0.25 h |
| MKQWIAALLLMLIPGVQAAKPQKVTLMVDDVPVAQVLQALAEQEKLNLVVSPDVSGTVSLHLTDVPWKQALQTVVKSAGLITRQEGNILSVHSIAWQNNNIARQEAEQARAQANLPLENRSITLQYADAGELAKAGEKLLSAKGSMTVDKRTNRLLLRDNKTALSALEQWVAQMDLPVGQVELSAHIVTINEKSLRELGVKWTLADAQHAGGVGQVTTLGSDLSVATATTHVGFNIGRINGRLLDLELSALEQKQQLDIIASPRLLASHLQPASIKQGSEIPYQVSSGESGATSVEFKEAVLGMEVTPTVLQKGRIRLKLHISQNVPGQVLQQADGEVLAIDKQEIETQVEVKSGETLALGGIFTRKNKSGQDSVPLLGDIPWFGQLFRHDGKEDERRELVVFITPRLVSSE | 3.42 ± 1.4 h |  |  |  |  |  |  | 6.11 h |  | 4.56 h |  | 4.33 h |
